Test results: a protein production outcome set (Wang et al. 2014)

Assay: label from the status in PepcDB records

Sequence	protein production
MRCRVYYEDTDSEGVVYHANYLKYCERARSEFFFKQNVLPENEEGVFVIRSIKADFFTPASLGQVLEIRTQIKELRKVFVVLFQEIYCIQNASLEPMKPFKVFASEIKFGFVNRSTYSPIAIPKLFKELLNAI	failed
MRDFLVRYFPTFMLTVLLGCFSASLLLSLAGTTYWRAMAPPQRDEYLLFGLLVLIPLLVLGNLLIVRGISRAVWLVAGYFVACLLGVVPMFQYHPHQGVYLFGVLLPLLGLLLLNSKRHREMRERLLQIRQQRQRFKQQRKRG	failed
MRDILKKELILLGILISISFAGCVDQNPEEYYSKGILQYDDGNYTESIDLFEKAIQLNPEESKYWLMKGKALYNLERYEEAVDCYNYVINVIEDEYNKDVWAAKADALRHIEGKEVEAEIAEARAK	failed
MRDITAQGSNVEEAIQNALATLETTRDKVEVEVLDEGKKGIFGIGSRLAMVKVIEKEDGIQVAIDYLLDVATKMGAVITIDVEEVGKDVKLQIKGESLGMLIGKHGQTLNALQYLTQLIANKTTSQYKNIIVNVGDYRERRHETLVLLANKMADKALKTKRAVHLEPMPSFERKIIHAILSENEQIETHSEGRDPYRYIVIKPVKK	failed
MRDTIPVTILSGSLGAGKTTLLNHLLTEAGDRDIAVLVNDMGTVNVDAELIAEGSELDVDDGVAELSNGCICCELQDDLETAVVRLADDRDFDALVVESSGISEPAPVARLFTTESRVAALYRVDTLVTVLDTRLFLDSFAGETPERRGSGEASADGDGDDTEADGADRPLSDLMVEQVELSNLVVLNKTDLCTDEEMDEAEELVRALQPDAETIRTTFSQVDPDRLFDRALFDQTEISDLPGWKRALAESGHGHGEGSHDHGGDSHETDAHEGDTGHGHDDHHHPEEVYGVTSFTYRRRRPFHPDRLAEVLQDLPSGVVRSKGTVWLAGSERRVVIGQAGPSIRAEAQGPWIASLPEVEQDMYRSNRPELDWHDEHGDRRTELVFIGTDYDESALRTALDDALVTDEEWTESESLTGPFPAEQGEEAVIRSP	not failed
MRDYVEIGMGREARRTYHLDSVAIVPSRRTRSSKDVDTTWHIDAYTFDIPFMSHPTDALATPDFVIEMDKQGGLGVINAEGLWGRHADLDAAIQEVITAYGDDELDLGSCNRATKKLQELHAAALDTELLVERIAQVRSSGAT	failed
MREAIIKRAAKELKEGMYVNLGIGLPTLVANEVSGMNIVFQSENGLLGIGAYPLEGSVDADLINAGKETITVVPGASFFNSADSFAMIRGGHIDLAILGGMEVSQNGDLANWMIPKKLIKGMGGAMDLVHGAKKVIVIMEHCNKYGESKVKKECSLPLTGKGVVHQLITDLAVFEFSNNAMKLVELQEGVSLDQVKEKTEAEFEVRL	failed
MREIIVDNFAGGGGASTGIELAIGRSVDIAINHDPNAVAMHTTNHPDTLHYCESVYSIRPKVATAGRRVGLAWFSPDCRHFSKAKGAKPVEKTIRGLAWIVIRWALDVGPRVMMLENVEEFKTWGPLLAAEMRPDPERVGETFQAFVGMLTTGIPADHPALLECCEFLNISLDSEDAARLVNGLGYTVEYRELRACDYGAPTIRKRFFMVMRRDGQPIVWPEATHGDPKSPAVLAGKLAPWRTAAECIDWSIPAPSIFDRKKPLVENSLKRIARGI	failed
MRELFKSVRGFFRLLRMIFPKRLKNAFLGLSELFYYASSLSFYTILSLSPILLFVFSLFVSHYLQAHSGEMEALIFPNAPKLIGAIKDFLENFKKTDMTLGTLEEVSIVVALVLFCENYRSIASKIFQAKPRDYAHFKGKEIFLFWGFGTTLVFLFALPLVVFFDIKIQVFFEDKNSNLLHVLRWIGTYAFFLILFTIPTNKVFKHYFWVFLWVFFTSVSWHVLKWAFTYYVLYNRTYHELYGSVSILWFLMSWVYVSWLVILIGMYGCKVCDAFDPKEVFKKFLGFFKKET	failed
MRERAASARGVQLARSSRVFRKAEWWNDARRFRTVIASAAKQSDRHRGDSPGLLRCARNDACEAMAERHTATGSDRSTSSLASFELRVERNATFPGNVTRLLHLIVVLLLVAGRTAFAAPCQFESQGDGRVAAIVDARSVRLDDGREIRLTGIEPTATTKQALASLLVGRDVTLRSADDTPDRYGRQGGLIFIGDSDTPVQAMLLAQGDAIVSAEIADKDCAAALMSSEAEARRQKKGNWADPSAIKNAESPDDILAGIGRFVVVEGKVLSVRQAGAMTYLNFGRNWTRGFAVTISRRASPAFETAGIALKSLENRRIRVRGWVEGNTGPRIDVRLVGQVELLGANEPAGVRP	failed
MRERVLFFDLLRCVAAVAVIAIHVLAPYRNELGVIPMDQWLTAVGVNSVTRWAVPVFILITGALMLSDTRPFDGKYYVKRRLGKVLVPFLIWSTFYAYLSGWTAQGFDFETVKEVLSNSPFHATYYHLGFFYYFIPLYFVIPLFQWMARNVDDNVLYTYLAFWMFTSTLFLFKIDGPWSNQMWLYMGYLPLGYVLFQKVPLNRSMVTLFTGFGLVALAVTFTMVVTNSLEAEKYTVGRWLSYKTLNVILAASMIFMLCRYFGEGLPKNVQKVVSFISQHSLGIYLLHPIFLWPMKEFGWYTGHPGWVIPVWIVLSGAGALAMSYLFSKSAKTRWLLP	failed
MRETFADDLRSLHNKLIEMGRLTEVALQQAIEAFQTQNKNLAMAVIDGDGSIDKLEEEVNDFALWLIAKQQPVATDLRRIVAAIKIASDIERIADFAVNIAKACIRIGGQPFVMDIGPLVLMYRLATDMVSTAIAAYDREDASLAAQIADMDHRVDEQYGEMMKSLLEVEKTDKETLAQMNVLALVARYIERTADHATNIAEHLVYLVKGKHYDFND	not failed
MRETRPNPQEILKEINKNEKDSKRGKLKIFFGYAAGVGKTYAMLEAAHSAIAMGLDVVVGYIEPHTRPETLALLEGLELLPNLEVAYRGLVLREFNLDLALSRKPDLIIVDELAHTNVKGLRHEKRYSDIEELLDAGIDVYTTLNVQHIESLNDVVASITNIVVKERIPDRIFKNAFQIELIDVDPSVLIERLNSGKIYVKNQAKKALKNFFIRENLVALRELALRETANSVNKEVMINKNENFYHTNEHILVCLSSSPSNSKVIRTSARMAEAFHGKFTALFVETTSSRELKEGNIERLREHVKLAKDLGAKIETVYGDDVAYQVSEFSKISSVSKVIIGRTKKKRHLWSRFGIVDRLIELAPELDVYIIPDEEENVEDINKICLNKEKITIKDSLKTLGILIITIIISLFFENLGFSEANIIIVFILGVLIIAKETYGRIYGVISSLFSVLLFNFFFTEPKFTFNAYDSSYIFTFFIMLVSALITSTLTNKVKVQANKSAITAYRTNILLESSSELGRCSDLEEIILKSQEQVSRLVKKPVVVYKAKNSQIENIYNYKFKDGSELSDKYINLDEQGVVLWVINNRKYAGKGTETLPGAKAMYIPVLGQEDIGIVIGIILEEGEELEEGEKSLLIAMINQVSFVIDNYILEEAKKQALMQAENEKFKANLLRAVSHDLRTPLTSISGSASLLLNNNFDEETKRKLTLDIYDDSIWLINLVENLLSVSRIDNGNINLNREAQLVEEIILEALQHVNRNACDYNIEIDLKDELLMVNADVRLIIQVIINIVDNAIKYTEKGSNIKISAFSKGDNVIIEIADNGVGISKEDKEHIFDMFFTSKKNISDSRRGLGLGLALCKSIINVHEGEIYVRDNKPRGTIIGFSLQRFEVNNNETSNFSY	failed
MRETVKLIEVARELPVSRKNLQMLLLLLLCGAAAYIINLADPALEPLFLALVFGIVAGNLQRDEEKKRVVERYVPFLLPIGITLYGVNINIPYLGEFHPEIVAATLISTSLIFLTVFWLSSRLKLSRQMSILLACGSGICGVSAIAIISPLIKPRKEEFSAAIMIITAVGLTGAILYPSIAHYASISPDEFAVLAGATLHQTGIVKISSQLFGVEEEALAIKGIRIAMIALVVLILSIIYSESRFYVPWYIVSFLGVALFSSTYLPGEVVQALRPLATVMFATTLAAICYTVNVGRVQRVGVKPLFASYAGWAVGVAFVLLLLGSGAL	failed
MRFHLPGPEDTVRLGRALAKALLQIDGLRVVLLAGTLGSGKTTMTRGLVAELPGGGMAEVSSPSFNICNLYPTTPPTAHFDLYRLEGNEPDDALLDLIDEGESIILIEWAEHLPEYALPPVWLRLAWHAAGEGRIVEAHGNGAPALVALDMVAAGVPDLVQP	failed
MRFLFSLIGLVYSSLIKLAVPFNPKARMMVRGRWKVWRQLREGIVPGGRYIWFHAASLGEFEQGRPMIERIRSEYPDYRIVLTFFSPSGYEVRKNYEGADVIVYLPADRLPRVRKFLDLVKPEMAIFIKYDFWPCFLTELERRQIPTYLVSSIFRPSQLFFRWYGGAYKRLLHCFTHIFVQDKASRLLLEKHGIDHVSVAGDTRFDRVISVYEARKSLPLIERFAASVPEDGLVIVGGSSWPPDEEILVRYFNRNPKIKLILAPHEIDKEHLLQIISHIRRPFIRLSEATESDIARQDCLIVDSFGLLSSIYRYGQVAFIGGGFGKGIHNTPEAAVYGIPVIFGPRYEKFKEARELIDVGGGFSVSSAEEFGNLIKRIQTDKAYRDAASRAAADYIRSNAGATGYIVHRIMKLEHHHHHH	not failed
MRFPPLLFFQDSEAVKRIANSVRGTKDDDAEIKDHSMRFIRNAISGDQQKEILNVDMLRYIAWVLVALNENIVTARTVIRERDAVEDALKNQQPEDIENFADDLKINMKYNRDLERFEIGVFDFVKYASRVTGSQYRLSNQSVIKGIVYCQKDVAIKILRESFVSNMFKVIDSIDQTTASPVLSDQTDSINELREFYKKSVYAKLTIGRGNTKAFPPCMKEIIRNLHEGINVPHMGRLAIASFLHKVGYTEDEIVEYFRNAPDFDESITRYQIKHLSGEISGVEYSPPKCETMRSNHLCFMDDDKLCHQDWMKHPLTYYEVKSRRLGLEHHHHHH	failed
MRFRDRRHAGALLAEALAPLGLEAPVVLGLPRGGVVVADEVARRLGGELDVVLVRKVGAPGNPEFALGAVGEGGELVLMPYALRYADQSYLEREAARQRDVLRKRAERYRRVRPKAARKGRDVVLVDDGVATGASMEAALSVVFQEGPRRVVVAVPVASPEAVERLKARAEVVALSVPQDFAAVGAYYLDFGEVTDEDVEAILLEWAG	not failed
MRFRNAILFVALAIAWGSAFTAIKAGLEYFPPILFAAFRYDLAGLLMLGYAVYATDQWVPKSRTDWIVVGIGGSLLIAAYHIFLFVGEQGTTSAAAAIVVSLSPILTTGFARAFLPDERLTTLGIVGLLVGFLGVGVLSNPDPGNLLNPRTVSLFLVFLAAASFALGSVLTRRFDDDLEIETMEAWSMLLGAVLMHGISFGVSESVADVQWTTEAVLALLYLVVVASALGFLIYFDLLERLGPIEINLVSYAAPVVAAATGLLFLSETPTVYTGVGFTCILVGFGLLKRDALRNEVARFSGTPNRGE	failed
MRFSSIFKIIILNIFISKMAHAAVCEERYPADSEECQYVQELEQKAEQGDESAQFALGSWYAEGRYVKPDYKLAIKWLEKAGKQGSDFSYFILGYHYNYGENFPLSRQKALEWYRKAAELGDSSTQEILGDAYMYGDGFPQNTQLALEWYRKAASPTNDAGVVRGQGSASSAQFKLGVMYAHGQGVPQDYQQTAILMRKAAENMYYPAQLYLGVAYFYGEGVPQDYRQAVYWLNEGIPGSYTPGHIPLSALYDKAHPADRVHSQTWYRKTAQRVMAKVQYNFGVWYYNGYHLLKDHNLALEWYRRAAAQGLAEAQDAIGVMFMQGEGVSQDYQQALAWYRKAARQGLPAAQTHLGIMSAFGRDVAQSDRQAIAWYRKAAKQDFAKAQYQLGVAYSTGRGVPENSRNALKWYLKAAEQGFTPAQSALGEIYAHGRQGVPKDNKQAYIWYYMASMYTEKSKDDCSALIAERNRLKGTLTPDQLSETYAAFNLIWRKIDQSKEAKKIARKKY	failed
MRFVVAFFWTFLLTQMACYIVGAMNGAGYDLQTSVIMGFIITAAVIVLGEIMPVKQDASQH	failed
MRGEFLSRSADETREYARRFASGLKPGDTVCLTGPLGAGKTEFMRGITEAFGCEEQLSSPTFSLMNIYEGLLRGQPFELHHFDLYRLESEKELDSAGFDDYLSGPFLSVVEWGERFASLDRRYTRRVQLFIAGESQRKIVIT	failed
